Measured values published in patent publication CN101899115A.
One block for each molecule: values may come before it.

Key:
[1] = biological target: CD3 (on Jurkat cells) (UniProt P07766); assay: FACS, HIT3a alone on Jurkat cells, FITC anti-mouse IgG
[2] = biological target: CD19 (on Raji cells) (UniProt P15391); assay: FACS, HIT19a alone on Raji cells, FITC anti-mouse IgG
[3] = biological target: CD19 (on Raji cells) (UniProt P15391); assay: FACS competition on Raji cells: ds-Diabody mixed with competitor HIT19a, HIT19a detected with FITC anti-mouse IgG
[4] = biological target: CD3 (on Jurkat cells) (UniProt P07766); assay: FACS competition on Jurkat cells: ds-Diabody mixed with competitor HIT3a, HIT3a detected with FITC anti-mouse IgG

- 细胞结合阳性率 [1]: 100%
Molecule: 抗CD3鼠源性单克隆抗体HIT3a (antibody)

- 细胞结合阳性率 [2]: 100%
Molecule: 抗CD19鼠源性单克隆抗体HIT19a (antibody)

- 细胞结合阳性率 (HIT19a signal remaining with ds-Diabody present) [3]: 63.3%
- 细胞结合阳性率 (HIT3a signal remaining with ds-Diabody present) [4]: 51.1%
B1: 二硫键稳定的抗CD3-抗CD19微型双功能抗体 (disulfide-stabilized anti-CD3/anti-CD19 diabody) (bispecific antibody)
chain 1: ADIELTQSPAIMSASPGEKVTMTCSASSSVSYMNWYQQKSGTSPKRWIYDTSKLASGVPARFSGSGSGTSYSLTISGMEAEDAATYYCQQWSSNPFTFGCGTKLELKRGGGGSQVQLQQSGAELVRPGSSVKISCKASGYAFSSYWMNWVKQRPGQGLEWIGQIYPGDGDTNYNGKFKGQATLTADKSSSTAYMQLSGLTSEDSAVYFCARKTISSVVDFYFDYWGQGTTLTVSS
chain 2: DIVLTQSPKFMSTSVGDRVSSPAKASQNVGTNVAWYQQKPGQSPKPLIYSATYRNSGVPDRFTGSGSGTDFTLTITNVQSKDLADYFCQQYNRYPYTSGGGTKLEIKRGGGGSQVQLQQSGAELARPGASVKMSCKASGYTFTRYTMHWVKQRPGQCLEWIGYINPSRGYTNYNQKFKDKATLTTDKSSSTAYMELTRLTSEDSAVYYCARYYDDHYSLDYWGQGTTVTVSS
